For 2 substances, Kd results are on record in publication PMC12483565, “CBFβ-SMMHC–driven leukemogenesis requires enhanced RUNX1-DNA binding affinity in mice”.

The target of this experiment is runt homology domain (RHD) of hRUNX1c (human). Nature of the experiment: BLI; biotinylated RHD loaded on streptavidin biosensors; CBFβ, CBFβ-SMMHC or mutants in solution at varying concentrations (50-600 nM); Octet RED96e; 20 mM Tris-HCl pH 8.0, 100 mM KCl, 1 mM EDTA, 1 mM DTT, 0.02% Tween 20; global fit. Background: Biolayer interferometry detects binding as a change in optical thickness at a sensor tip.

The Kd is the concentration at which binding is half-saturated. Low values mean a tighter complex, high ones a looser complex.

Turning to CBFβ-SMMHC (from UniProt Q13951 1-165), the Kd is 13 nM.

“core-binding factor β (CBFβ) (from UniProt Q13951-2 1-187) (natural protein)” returned a Kd of 64.7 nM.
